The results in this text go back to patent WO2013005649A1.

This assay addresses human CCR6 N-terminal extracellular domain Fc fusion protein NthCCR6-IgG4Fc (human). The experiment in a line: SPR, Biacore T100; NthCCR6-IgG4Fc captured on anti-human IgG CM5 chip, antibody injected. In general terms: SPR reads the build-up and loss of mass on a sensor chip optically.

Sequence of human CCR6 N-terminal extracellular domain Fc fusion protein NthCCR6-IgG4Fc (human) (chain, as listed by the source limits assumed): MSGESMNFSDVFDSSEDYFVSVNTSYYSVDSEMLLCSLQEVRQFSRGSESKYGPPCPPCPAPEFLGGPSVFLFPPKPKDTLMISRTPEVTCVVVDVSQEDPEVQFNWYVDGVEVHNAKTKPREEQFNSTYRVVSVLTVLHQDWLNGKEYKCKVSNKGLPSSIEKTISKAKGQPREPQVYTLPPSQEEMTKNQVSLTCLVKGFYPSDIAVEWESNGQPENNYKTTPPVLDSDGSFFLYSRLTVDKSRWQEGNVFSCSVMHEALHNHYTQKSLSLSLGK

In the case of “commercially available anti-human CCR6 monoclonal antibody 11A9 (BD Pharmingen)”, the Kd (commonly the equilibrium constant for the complex coming apart) stood at 20 nM.

Regarding “commercially available anti-human CCR6 monoclonal antibody R6H1 (eBioscience)”, the Kd amounted to 4.97 nM.

“human CCR6 monoclonal antibody (clone 53103) (R&D Systems)” displayed a Kd of 70.9 nM.
